Experimental findings from patent US20260008856A1 (BLUEFIN BIOMEDICINE, published 2026) are described below.

This assay addresses T1, huIL1RAP ECD recombinant protein (human, UniProt Q9NPH3 21-367).
T1 construct: also called recombinant human IL1RAP-ECD; recombinant human IL1RAP; not shown: C-terminal histidine tag for purification
The assay is described as follows: Octet BLI, antibody on Protein A biosensor, recombinant huIL1RAP ECD. The protocol:
Affinity: The affinity of antibodies to various recombinant IL1RAP protein was determined on an Octet Red™ instrument. After loading reagents into a 96-well plate, the Octet Red™ with Protein A-conjugated biosensors was programmed as follows: 30 seconds for baseline #1; 120 seconds to immobilize the antibody; 30 seconds for baseline #2; 300 seconds for association of antibody to recombinant IL1RAP; and 300-600 seconds for dissociation of recombinant IL1RAP from the antibody.
Background: Biolayer interferometry detects binding as a change in optical thickness at a sensor tip.

As usually defined, the Kd is the concentration at which binding is half-saturated.

B1: 39A9_28A4 (antibody, V domains shown)
VH: QVQLVESGGGVVQPGRSLRLSCAASGFTLSGYGMHWVRQAPGKGLEWVAVIWYDGSNKYYADSVKGRFTISRDNSKNMLFLQMNSLRAEDTAVYYCVRENGFGSGWFFDYWGQGNLVTVSS
VL: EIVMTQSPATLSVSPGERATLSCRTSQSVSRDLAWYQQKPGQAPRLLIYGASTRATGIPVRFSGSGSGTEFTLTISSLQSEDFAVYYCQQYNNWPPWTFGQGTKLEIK
notes: Recombinant human antibody
As for B1, the Kd was found to be 3 nM.

B2: 16H2_17D1 (antibody, V domains shown)
VH: EVQLLESGADLVQPGGSLRLSCAASGFTFSSYAMSWVRQAPGKGLEWVSTIRISGGTTYYADSVKGRFTISRDNSKNTLYLQMNSLRAEDTAVYYCVRDYYNGMDVWGQGTTVTVSS
VL: EIVLTQSPATLSLSPGERATLSCRASQRVSSYLAWYQQKPGQAPRLLIYDASNRATGIPARFSGSGSGTDFTLTISSLEPEDFAVYYCQQRSYWPPAFGQGTKLEIK
notes: Recombinant human antibody
As for B2, the Kd is 50 nM.

B3: 10C8-15A4 (antibody, V domains shown)
VH: EEQLLESGADLAQPGGSLRLSCAASGFTFSSYAMSWVRQAPGKGLEWVSTIRISGDTTYYADSVKGRFTISRDNSKNTLFLQMNSLRAEDTAVYYCVRDYYNGMDVWGHGTTVTVSS
VL: EIVLTQSPATLSLSPGERATLSCRASQRVSSYLAWYQQKPGQAPRLLIYDASNRATGIPARFSGSGSGTDFTLTISSLEPEDFAVYYCQQRSYWPPAFGQGTKLEIK
notes: Recombinant human antibody
On to B3, for which the Kd was determined as 1 nM.

B4: 26C5_15B4 (antibody, V domains shown)
VH: EAQLLESGGGLVQPGGSLRLSCAASGFTFSSYAMSWVRQAPGKGLEWVSTISGSGGSTHYADSVKGRFTISRDNSKNTLYLQMNSLRAEDTAVYYCVRDYYYGMDVWGQGTTVTVSS
VL: EIVLTQSPATLSLSPGERATLSCRASQSVSSYLAWYQQKPGQAPRLLIYDASNRATGIPARFSGSGSGTDFTLTISSLEPEDFAVYYCQQRSYWPPTFGQGTKLEIK
notes: Recombinant human antibody
In the case of B4, the Kd is 127 nM.

B5: 5D12_C108Y (antibody, V domains shown)
VH: QVQLQESGPGLVKPLGTLSLTCAVSGGSISNSNWWSWVRQPPGKGLEWIGEIYHSGSTNYNPSLKSRVTIALDWSKNQFSLQLRSVTAADTAVYYCARYGSGPFGGDYWGQGTLVTVSS
VL: DIQLTQSPSFLSASVGDRVTISCRASQGISSYLAWYQQKPGKAPKLLIYAASTLQGGVPSRFSGSGSGTTFTLTISSLQPEDFATYYCQQLNTYPFTFGPGTKLEIK
notes: Cys108Tyr (VH) variant of 5D12_18A4
Take B5: the Kd is 13 nM.

B6: 38G11_28A2 (antibody, V domains shown)
VH: EVQLVESGGGLVQPGGSLRLSCAASGFTFSSYWMSWVRQAPGKGLEWVANIKQDGSEKHYVDSVKGRFTISRDNAKNSLYLQMNSLRAEDTAVYYCAREGYFGSGYFDYWGQGTLVTVSS
VL: DIQLTQSPSFLSASVGDRVTITCRASQGISSYLAWYQQKPGKAPKLLIYAASTLQSGVPSRFSGSGSGTEFTLTISSLQPEDFATYYCQQYSFYSHTFGQGTKLEIK
notes: Recombinant human antibody
Consider B6, for which the Kd came out at 29 nM.

B7: 42D10_28A5 (antibody, V domains shown)
VH: QVQPKESGPGVVKPSETLSLTCAVSGFPISRGYYWGWIRQPPGKGLEWIGNIFHSGTTYYNPSLKSRVTISVDTSKNQISLKLTSVTAADTAVYYCVGFGDLPHYQYYVMDIWGQGTTVTVSS
VL: EIVLTQSPATLSLSPGERATLSCRASQSVSSYLAWYQQKPGQAPRLLIYDASNRATGIPARFSGSGSGTDFTLTISSLEPEDFAVYYCQQRSNWPPYTFGQGTKLEIK
notes: Recombinant human antibody
As for B7, the Kd is 7 nM.

B8: 34H8_21B4 (antibody, V domains shown)
VH: QVQLQESGPGLVKPSETLSLTCAVSGYSASGLYYWAWIRQPPGKGLEWIGNIYHSGRTYYNPSLESRVSISLDTSKHQVSLKLKSVTYADTAVYFCARDRFDGFDIWGQGTMVTVSS
VL: EIVMTQSPATLSVSPGERATLSCRASQTINNILAWYQQKPGQAPRLLIYGASTRATGIPARFSGSGSGTEFTLTISSLQSEDFAVYYCQQYNNWPLTFGGGTKLEIK
notes: Recombinant human antibody
As for B8, the dissociation constant (Kd) is 5 nM.

B9: 34D1_21B3 (antibody, V domains shown)
VH: QGQLVESGGGVVQPGRSLRLSCAASGFTFSSYTLHWVRQAPGKGLEWVAVIWYDGSNKYYVDSVKGRFTISRDNSKNTLYLQMNSLRAEDTAVYYCAREYGSGSYYNVYYGMDVWGQGTTVTVSS
VL: DIVMTQSPLSLPVTPGEPASISCRSSQSLLHSNGYKYLDWYLQKAGQSPHLLIYLGSNRASGVPDRFSGSGSGTDFTLKISRVEAEDVGFYYCMQTLQIPLTFGGGTKLEIK
notes: Recombinant human antibody
In the case of B9, the Kd was 3 nM.

B10: 10C8_C43A (antibody, V domains shown)
VH: QVQLVESGGGVVQPGRSLRISCAASGFTFRSYGMHWVRQAPGKGLEWVAIIWHDESYKYYVDSVKGRFTISRDNSKNTLYLQMNSLRAEDTAVYYCARGDYYGSGSYYDAFDIWGQGTMVTVSS
VL: DIQMTQSPSSLSASVGDRVIITCRASQGISNYLAWFQQKPGKAPNLLIYAASTLRSGVPSRFSGSGSGTDFTLTISSLQPEDVATYYCQKYNSAPYTFGQGTKVEIK
notes: Cys43Ala variant of 10C8_15A1
In the case of B10, the Kd is 13 nM.

B11: 32F9_21A5 (antibody, V domains shown)
VH: QLQLVESGGGVVQPGRSLRLSCAASGFTFSSHGMHWVRQAPGKGLEWVAVIWYDGSSEYYADSVKGRFTISRDNSKNTLYLQMNSLRAEDTAVYYCARENVYGSGWFFDYWGQGSLVTVSS
VL: EIVMTQSPATLSVSPGERASLSCRASQSVGSNLAWYQQKPGQAPRLLIFGASTRATGIPARFSGSRSGTEFTLTISSLQSEDFALYYCQQYNNWPPWTFGQGTKLEIK
notes: Recombinant human antibody
For the molecule B11, the Kd turned out to be 2 nM.

B12: 31F9_21A1 (antibody, V domains shown)
VH: QVQLVESGGGMVQPGRSLRLSCTASGFTFSSHGMHWVRQAPGKGLEWVAVIWFDGSNEYYVDSVKGRFTISRDNSKNTLYLQMNSLRAEDTAVYYCARENVYGSGWFFDYWGQGTLVTVSS
VL: EIVMTQSPATLSVSPGERASLSCRASQSVGSNLAWYQQKPGQAPRLLIFGASTRATGIPARFSGSRSGTEFTLTISSLQSEDFALYYCQQYNNWPPWTFGQGTKVEIK
notes: Recombinant human antibody
Turning to B12, the Kd was found to be 2 nM.

B13: 32D4_21D6 (antibody, V domains shown)
VH: QLQLVESGGGVVQPGRSLRLSCAASGFTFSSYGMHWVRQAPGKGLEWVAVIWYDGSSEYYADSVKGRFTISRDNSKNTLYLQMNSLRAEDTAVYYCARENVYGSGWFFDYWGQGTLVTVSS
VL: EIVMTQSPATLSVSPGERASLSCRASQSVGSNLAWYQQKPGQAPRLLIFGASTRATGIPARFSGSRSGTEFTLTISSLQSEDFALYYCQQYNNWPPWTFGQGTKVEIK
notes: Recombinant human antibody
For the molecule B13, the Kd amounted to 3 nM.

B14: 33E9_21A6 (antibody, V domains shown)
VH: QLQLVESGGGVVQFGRSLRLSCAASGFTFSSHGMHWVRQAPGKGLEWVAVIWYDGSSEYYADSVKGRFTISRDNSKNTLYLQMNSLRAEDTAVYYCARENVYGSGWFFDYWGQGTLVTVSS
VL: EIVMTQSPATLSVSPGERASLSCRASQSVGSNLAWYQQKPGQAPRLLIFGASTRATGIPARFSGSRSGTEFTLTISSLQSEDFALYYCQQYNNWPPWTFGQGTKLEIK
notes: Recombinant human antibody
In the case of B14, the Kd was 2 nM.

B15: 35D11_22A1 (antibody, V domains shown)
VH: QLQLVESGGGVVQPGRSLRLSCAASGFTFSSYGMHWVRQAPGKGLEWVAVIWYDGSSEYYADSVKGRFTISRDNSKNTLFLQMNSLRADDTAVYYCARENVYGSGWFFDYWGQGTLVTVSS
VL: EIVMTQSPATLSVSPGERASLSCRASQSVGSNLAWYQQKPGQAPRLLIFGASTRATGIPARFSGSRSGTEFTLTISSLQSEDFALYYCQQYDNWPPWTFGQGTKLEIK
notes: Recombinant human antibody
Take B15: the Kd came to 3 nM.

B16: 17E9_15B1 (antibody, V domains shown)
VH: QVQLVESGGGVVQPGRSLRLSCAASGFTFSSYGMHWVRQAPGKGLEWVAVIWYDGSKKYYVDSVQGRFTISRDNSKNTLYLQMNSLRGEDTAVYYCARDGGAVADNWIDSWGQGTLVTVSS
VL: DIQMTQSPSSLSASVGDRVTLTCRASQNIRSYLNWYQQKPGKAPKLLIFAASSLPSGVPSRFSGSGSVTDFTLTVSSLQPEDFATYSCQQSYSTPYTFGQGTKLEIK
notes: Recombinant human antibody
Regarding B16, the Kd was 21 nM.

B17: 33H2_21B1 (antibody, V domains shown)
VH: EVQVVESGGGLVQPGGSLRLSCATSGFTFRSYWMTWVRQAPGKGLEWVANIKQDGSERHYVDSVKGRFTISRDNAKTSLYLQMSSLRAEDTAMYYCAREGYYGSGYFDYWGQGTLVTVSS
VL: DIQMTQSPSTLSASVGDRVIITCRASQSISRGLAWYQQKPGKAPKLLIYKASNLESGVPSRFSGSGSGTEFTLTISSLQPDDFAAYYCQQYSYYSHTFGQGTKVEIK
notes: Recombinant human antibody
Turning to B17, the Kd stood at 7 nM.

B18: 36A12_21C1 (antibody, V domains shown)
VH: EVQLVESGGGLVQPGGSLRLSCAASGFTLSFYWMTWVRQAPGKGLEWVANIKQDGNEKNYVDSVKGRFTISKDNAKKSVFLQMNSLRAEDTAVYYCAREGYFGSGYFDYWGQGTLVTVSS
VL: DIQMTQSPSTLSASVGDRVTITCRASQSINSWLAWYQQKPGKAPKLLIYKASTLESGVPSRFSGSGSGTEFTLTISSLQPDDFAPYYCQHYNSYPHTFGQGTKVEIK
notes: Recombinant human antibody
B18: the Kd was determined as 24 nM.

B19: 40C3_22B6 (antibody, V domains shown)
VH: EVQLVESGGGLVQPGGSLRLSCAASGFTLSFYWMTWVRQAPGKGLEWVANIKQDGNEKNFVDSVKGRFTISRDNAKKSVFLQMNSLRAEDTAVYYCAREGYFGSGYFDYWGQGTLVTVSS
VL: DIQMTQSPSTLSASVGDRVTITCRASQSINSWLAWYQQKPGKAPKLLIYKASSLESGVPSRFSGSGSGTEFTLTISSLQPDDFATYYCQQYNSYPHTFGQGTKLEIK
notes: Recombinant human antibody
As to B19, the Kd stood at 23 nM.

B20: 34C11_21B2 (antibody, V domains shown)
VH: EVQVVESGGGLVQPGGSLRLSCAASGFTFRSYWMSWVRQAPGKGLEWVANIKQDGSERHYVDSVKGRFTISRDNAKTSLYLQMSSLRAEDTAVYYCAREGYFGSGYFDYWGQGTLVTVSS
VL: DIQMTQSPSTLSASVGDRVIITCRASQSISRGLAWYQQKPGKAPKLLIYKASNLESGVPSRFSGSGSGTEFTLTISSLQPDDFAAYYCQQYSYYSHTFGQGTKLEIK
notes: Recombinant human antibody
For B20, the dissociation constant Kd is 0.2 nM.

B21: 32C12-N26S (antibody, V domains shown)
VH: QVQLVESGGGVVQPGRSLRLSCAASGFTFRNYGIHWVRQAPGKGLEWVAVIWYDGSNKFYADSVKGRFTISRDNSKNTLYLQMNSLRVEDTAVYYCAREEGIAVAPFDYWGQGTLVTVSS
VL: DIQMTQSPSSLSASVGDRVAITCRASQSIASYLNWYQQKPGKAPKLLIYGASSLQNGVPSRFSGSGSRTDFTLTISSLQPEDFATYYCQQSYSTEITFGQGTRLEIK
notes: Asn26Ser (VL CDR1) variant of 32C12_21A4
As for B21, the Kd is 19 nM.

B22: 41G4_15B6 (antibody, V domains shown)
VH: QVQLVESGGGVVQPGRSLRLSCAASGFTFRNYGMHWVRQAPGKGLEWVAVIWYDGSNKFYADSVKGRFTISRDNSKNTLYLQMNSLRVEDTAVYYCAREEGIAVAPFDYWGQGTLVTVSS
VL: DIQMTQSPSSLSASVGDRVAITCRANQSIASYLNWYQQKPGKAPKLLIYGASSLQNGVPSRFSGSGSRTDFTLTISSLQPEDFATYYCQQSYSTEITFGQGTRLEIK
notes: Recombinant human antibody
Turning to B22, the equilibrium dissociation constant (Kd) stood at 5 nM.
